# Literature values in article PMC10636758.
# How the values were obtained:
# HP1α (Homo sapiens) = HP1α (Homo sapiens) (UniProt P45973)
# [1] = target: Histone H3 peptide (Homo sapiens)
Kd (HP1α (Homo sapiens)) [µM],Kd [1] [µM],Substance
< 1,–,HP1α (from UniProt P45973)
–,58,HP1α CSD (from UniProt P45973)
